Measured values from article PMC12465037, “Defective targeting of PNPLA1 to lipid droplets causes ichthyosis in ABHD5-syndromic epidermal differentiation disorder” (Journal of Lipid Research, 2025).

B1: Xpress-tagged human ABHD5 p.E260K (natural protein, UniProt Q8WTS1 1-349, looked up)
chain: MAAEEEEVDSADTGERSGWLTGWLPTWCPTSISHLKEAEEKMLKCVPCTYKKEPVRISNGNKIWTLKFSHNISNKTPLVLLHGFGGGLGLWALNFGDLCTNRPVYAFDLLGFGRSSRPRFDSDAEEVENQFVESIEEWRCALGLDKMILLGHNLGGFLAAAYSLKYPSRVNHLILVEPWGFPERPDLADQDRPIPVWIRALGAALTPFNPLAGLRIAGPFGLSLVQRLRPDFKRKYSSMFEDDTVTEYIYHCNVQTPSGKTAFKNMTIPYGWAKRPMLQRIGKMHPDIPVSVIFGARSCIDGNSGTSIQSLRPHSYVKTIAILGAGHYVYADQPEEFNQKVKEICDTVD
notes: human ABHD5, full-length open reading frame of NM_016006.6 with the patient mutation p.E260K; Disease-associated (ABHD5-sEDD) missense variant made by site-directed mutagenesis; source: HEK293T, transfected (pcDNA4/HisMaxC), in lysate
B2: Xpress-tagged human ABHD5 p.S115G (natural protein, UniProt Q8WTS1 1-349, looked up)
chain: MAAEEEEVDSADTGERSGWLTGWLPTWCPTSISHLKEAEEKMLKCVPCTYKKEPVRISNGNKIWTLKFSHNISNKTPLVLLHGFGGGLGLWALNFGDLCTNRPVYAFDLLGFGRGSRPRFDSDAEEVENQFVESIEEWRCALGLDKMILLGHNLGGFLAAAYSLKYPSRVNHLILVEPWGFPERPDLADQDRPIPVWIRALGAALTPFNPLAGLRIAGPFGLSLVQRLRPDFKRKYSSMFEDDTVTEYIYHCNVQTPSGETAFKNMTIPYGWAKRPMLQRIGKMHPDIPVSVIFGARSCIDGNSGTSIQSLRPHSYVKTIAILGAGHYVYADQPEEFNQKVKEICDTVD
notes: human ABHD5, full-length open reading frame of NM_016006.6 with the patient mutation p.S115G; Disease-associated (ABHD5-sEDD) missense variant made by site-directed mutagenesis; source: HEK293T, transfected (pcDNA4/HisMaxC), in lysate
B3: Xpress-tagged human ABHD5 p.Q130P (natural protein, UniProt Q8WTS1 1-349, looked up)
chain: MAAEEEEVDSADTGERSGWLTGWLPTWCPTSISHLKEAEEKMLKCVPCTYKKEPVRISNGNKIWTLKFSHNISNKTPLVLLHGFGGGLGLWALNFGDLCTNRPVYAFDLLGFGRSSRPRFDSDAEEVENPFVESIEEWRCALGLDKMILLGHNLGGFLAAAYSLKYPSRVNHLILVEPWGFPERPDLADQDRPIPVWIRALGAALTPFNPLAGLRIAGPFGLSLVQRLRPDFKRKYSSMFEDDTVTEYIYHCNVQTPSGETAFKNMTIPYGWAKRPMLQRIGKMHPDIPVSVIFGARSCIDGNSGTSIQSLRPHSYVKTIAILGAGHYVYADQPEEFNQKVKEICDTVD
notes: human ABHD5, full-length open reading frame of NM_016006.6 with the patient mutation p.Q130P; Disease-associated (ABHD5-sEDD) missense variant made by site-directed mutagenesis; source: HEK293T, transfected (pcDNA4/HisMaxC), in lysate
B4: Xpress-tagged human ABHD5 p.H82R (natural protein, UniProt Q8WTS1 1-349, looked up)
chain: MAAEEEEVDSADTGERSGWLTGWLPTWCPTSISHLKEAEEKMLKCVPCTYKKEPVRISNGNKIWTLKFSHNISNKTPLVLLRGFGGGLGLWALNFGDLCTNRPVYAFDLLGFGRSSRPRFDSDAEEVENQFVESIEEWRCALGLDKMILLGHNLGGFLAAAYSLKYPSRVNHLILVEPWGFPERPDLADQDRPIPVWIRALGAALTPFNPLAGLRIAGPFGLSLVQRLRPDFKRKYSSMFEDDTVTEYIYHCNVQTPSGETAFKNMTIPYGWAKRPMLQRIGKMHPDIPVSVIFGARSCIDGNSGTSIQSLRPHSYVKTIAILGAGHYVYADQPEEFNQKVKEICDTVD
notes: human ABHD5, full-length open reading frame of NM_016006.6 with the patient mutation p.H82R; Disease-associated (ABHD5-sEDD) missense variant made by site-directed mutagenesis; source: HEK293T, transfected (pcDNA4/HisMaxC), in lysate
B5: Xpress-tagged human ABHD5 p.G271R (natural protein, UniProt Q8WTS1 1-349, looked up)
chain: MAAEEEEVDSADTGERSGWLTGWLPTWCPTSISHLKEAEEKMLKCVPCTYKKEPVRISNGNKIWTLKFSHNISNKTPLVLLHGFGGGLGLWALNFGDLCTNRPVYAFDLLGFGRSSRPRFDSDAEEVENQFVESIEEWRCALGLDKMILLGHNLGGFLAAAYSLKYPSRVNHLILVEPWGFPERPDLADQDRPIPVWIRALGAALTPFNPLAGLRIAGPFGLSLVQRLRPDFKRKYSSMFEDDTVTEYIYHCNVQTPSGETAFKNMTIPYRWAKRPMLQRIGKMHPDIPVSVIFGARSCIDGNSGTSIQSLRPHSYVKTIAILGAGHYVYADQPEEFNQKVKEICDTVD
notes: human ABHD5, full-length open reading frame of NM_016006.6 with the patient mutation p.G271R; Disease-associated (ABHD5-sEDD) missense variant made by site-directed mutagenesis; source: HEK293T, transfected (pcDNA4/HisMaxC), in lysate
B6: Xpress-tagged human ABHD5 p.R297N (natural protein, UniProt Q8WTS1 1-349, looked up)
chain: MAAEEEEVDSADTGERSGWLTGWLPTWCPTSISHLKEAEEKMLKCVPCTYKKEPVRISNGNKIWTLKFSHNISNKTPLVLLHGFGGGLGLWALNFGDLCTNRPVYAFDLLGFGRSSRPRFDSDAEEVENQFVESIEEWRCALGLDKMILLGHNLGGFLAAAYSLKYPSRVNHLILVEPWGFPERPDLADQDRPIPVWIRALGAALTPFNPLAGLRIAGPFGLSLVQRLRPDFKRKYSSMFEDDTVTEYIYHCNVQTPSGETAFKNMTIPYGWAKRPMLQRIGKMHPDIPVSVIFGANSCIDGNSGTSIQSLRPHSYVKTIAILGAGHYVYADQPEEFNQKVKEICDTVD
notes: human ABHD5, full-length open reading frame of NM_016006.6 with the patient mutation p.R297N; Disease-associated (ABHD5-sEDD) missense variant made by site-directed mutagenesis; source: HEK293T, transfected (pcDNA4/HisMaxC), in lysate

The binders below were run against T1, 3xFLAG-tagged full-length human PNPLA1, partially purified (pcDNA4/HisMaxC-mut-3xFLAG-hsPNPLA1) (human, UniProt Q8N8W4-1 1-532) (assay: ELISA; solid-phase interaction assay: 1.8 μg/well of purified 3xFLAG-PNPLA1, PLIN2 or PLIN3 coated on MaxiSorp plates (50 mM Tris-HCl pH 8.0, 200 mM NaCl); 40 μg HEK293T lysate with Xpress-tagged ABHD5 variants in TBS with 2% BSA and 0.05% Tween 20, overnight at 4°C; anti-Xpress and HRP secondary antibody, TMB, absorbance at 620 nm, background subtracted and normalised to expression). Conditions: one partner purified.
T1 construct: human PNPLA1, full-length open reading frame of NM_001145717.1; also called 3xFLAG-PNPLA1; source: Expi293F, transfected, partially purified (IMAC, HisTrap HP)
T1 sequence (looked up): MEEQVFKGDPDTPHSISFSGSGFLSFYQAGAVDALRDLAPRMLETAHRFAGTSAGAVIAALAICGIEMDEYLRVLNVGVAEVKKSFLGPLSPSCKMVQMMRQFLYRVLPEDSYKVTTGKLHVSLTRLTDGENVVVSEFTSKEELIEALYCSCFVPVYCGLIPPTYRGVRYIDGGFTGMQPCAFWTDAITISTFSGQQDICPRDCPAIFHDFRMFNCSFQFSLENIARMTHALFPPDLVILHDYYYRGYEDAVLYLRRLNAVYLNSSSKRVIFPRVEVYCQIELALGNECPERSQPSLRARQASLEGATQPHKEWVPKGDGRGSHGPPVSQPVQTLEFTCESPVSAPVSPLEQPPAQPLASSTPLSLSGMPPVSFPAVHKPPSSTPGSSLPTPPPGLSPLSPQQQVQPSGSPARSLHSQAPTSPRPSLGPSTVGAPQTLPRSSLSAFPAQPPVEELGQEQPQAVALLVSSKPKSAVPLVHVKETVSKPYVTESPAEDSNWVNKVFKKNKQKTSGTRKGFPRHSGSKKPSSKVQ

First: B1
Second: B2
The “change of PNPLA1 binding (normalised absorbance) against wild-type ABHD5” value of the first is higher: 25% for the first, -17% for the second.

Compared with B3, B4 is higher in “change of PNPLA1 binding (normalised absorbance) against wild-type ABHD5” value: 16% for the first, 44% for the second.

First: B5
Second: B6
The “change of PNPLA1 binding (normalised absorbance) against wild-type ABHD5” value of the first is higher: -59% for the first, -87% for the second.
